Measurements taken from IntAct's records for PubMed 21151104.

B1: T-box transcription factor TBX21 (Mus musculus), Q9JKD8 (parent)
chain: MGIVEPGCGDMLTGTEPMPSDEGRGPGADQQHRFFYPEPGAQDPTDRRAGSSLGTPYSGGALVPAAPGRFLGSFAYPPRAQVAGFPGPGEFFPPPAGAEGYPPVDGYPAPDPRAGLYPGPREDYALPAGLEVSGKLRVALSNHLLWSKFNQHQTEMIITKQGRRMFPFLSFTVAGLEPTSHYRMFVDVVLVDQHHWRYQSGKWVQCGKAEGSMPGNRLYVHPDSPNTGAHWMRQEVSFGKLKLTNNKGASNNVTQMIVLQSLHKYQPRLHIVEVNDGEPEAACSASNTHVFTFQETQFIAVTAYQNAEITQLKIDNNPFAKGFRENFESMYASVDTSVPSPPGPNCQLLGGDPFSPLLSNQYPVPSRFYPDLPGQPKDMISQPYWLGTPREHSYEAEFRAVSMKPTLLPSAPGPTVPYYRGQDVLAPGAGWPVAPQYPPKMSPAGWFRPMRTLPMDPGLGSSEEQGSSPSLWPEVTSLQPEPSDSGLGEGDTKRRRISPYPSSGDSSSPAGAPSPFDKETEGQFYNYFPN

Variants of: B1
Details: with runx1_mouse Runx1, Q03347
Chain of runx1_mouse Runx1, Q03347 (Q03347 whole entry): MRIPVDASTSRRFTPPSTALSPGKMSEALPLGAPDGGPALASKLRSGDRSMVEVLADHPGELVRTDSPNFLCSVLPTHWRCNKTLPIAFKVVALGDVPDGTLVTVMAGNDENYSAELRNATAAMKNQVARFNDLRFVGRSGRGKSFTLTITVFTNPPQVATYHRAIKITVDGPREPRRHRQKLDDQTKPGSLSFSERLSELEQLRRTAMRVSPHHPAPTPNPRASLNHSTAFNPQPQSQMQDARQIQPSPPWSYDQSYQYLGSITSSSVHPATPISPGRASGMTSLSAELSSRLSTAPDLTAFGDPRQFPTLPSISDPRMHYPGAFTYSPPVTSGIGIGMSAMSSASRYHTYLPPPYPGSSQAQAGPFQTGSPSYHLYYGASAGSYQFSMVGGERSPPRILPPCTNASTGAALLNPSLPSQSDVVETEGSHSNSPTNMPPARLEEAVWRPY

Variant | effect of a mutation on the interaction
MGIVEPGCGDMLTGTEPMPSDEGRGPGADQQHRFFYPEPGAQDPTDRRAGSSLGTPYSGGALVPAAPGRFLGSFAYPPRAQVAGFPGPGEFFPPPAGAEGYPPVDGYPAPDPRAGLYPGPREDYALPAGLEVSGKLRVALSNHLLWSKFNQHQTEMIITKQGRRMFPFLSFTVAGLEPTSHYRMFVDVVLVDQHHWRYQSGKWVQCGKAEGSMPGNRLYVHPDSPNTGAHWMRQEVSFGKLKLTNNKGASNNVTQMIVLQSLHKYQPRLHIVEVNDGEPEAACSASNTHVFTFQETQFIAVTAFQNAEITQLKIDNNPFAKGFRENFESMYASVDTSVPSPPGPNCQLLGGDPFSPLLSNQYPVPSRFYPDLPGQPKDMISQPYWLGTPREHSYEAEFRAVSMKPTLLPSAPGPTVPYYRGQDVLAPGAGWPVAPQYPPKMSPAGWFRPMRTLPMDPGLGSSEEQGSSPSLWPEVTSLQPEPSDSGLGEGDTKRRRISPYPSSGDSSSPAGAPSPFDKETEGQFYNYFPN [Y304F] | disrupting interaction
